± gives the standard error. Variants at the floor of the assay were thinned out.
B1: glmS ribozyme (parent)
chain: AUAAAAGCGCCAGAACUACAGAAAUGUAGUUGACGAGGAGGAGGUUUAUCGAAUUUUCGGCGGAUGCCUCCAAA

Tests used:
Settings in all cases: with glucosamine-6-phosphate
[1] = variants of: B1; experiment: self-cleavage kobs at 40 uM GlcN6P; higher = faster cleavage; RNA array
In short: (§1)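 The measurements used barcoded ribozyme variants on sequenced MiSeq chips, transcribed in situ by E. coli RNA polymerase and tracked at 37 °C with a hybridised Cy3 probe. Glucosamine-6-phosphate, 40 μM to 10 mM in HEPES/KCl/Mg(OAc)2 buffer, was flowed in while tiles were imaged over ~14 h. Baseline-normalised signals, also normalised to non-cleaving reference variants, gave per-tile medians that were fit to one- or two-exponential decays for kobs. kcat and KM resulted from weighted Michaelis–Menten fits across concentrations.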

[2] = variants of: B1; experiment: self-cleavage kobs at 160 uM GlcN6P; higher = faster cleavage; RNA array
In short: as §1

[3] = variants of: B1; experiment: self-cleavage kobs at 10000 uM GlcN6P; higher = faster cleavage; RNA array
In short: as §1

[4] = variants of: B1; experiment: self-cleavage kobs at 2500 uM GlcN6P; higher = faster cleavage; RNA array
In short: as §1

[5] = variants of: B1; experiment: self-cleavage kobs at 640 uM GlcN6P; higher = faster cleavage; RNA array
In short: as §1

| Variant | self-cleavage kobs at 40 uM GlcN6P [1] [s⁻¹] | self-cleavage kobs at 160 uM GlcN6P [2] [s⁻¹] | self-cleavage kobs at 10000 uM GlcN6P [3] [s⁻¹] | self-cleavage kobs at 2500 uM GlcN6P [4] [s⁻¹] | self-cleavage kobs at 640 uM GlcN6P [5] [s⁻¹] |
| --- | --- | --- | --- | --- | --- |
| AUAAAAGCGCCAGAACUACAGAAAUGUAGUUGACGAGGAGGAGGAUUAUCGAAUUUUCGACGGAUGCCUCCAAA [U45A G60A] | < 1e-05 | < 1e-05 |  |  |  |
| AUAAAAGCGCCAGAACUACAGAAAUGUAGUUGACGAGGAGGAGGUUUAUCGAGCUUUCGGCGGAUGCCUCCAAA [A53G U54C] | 0.000508 ± 7.8e-05 | 0.000991 ± 0.00024 | 0.0169 ± 0.0033 |  |  |
| AUAAAAGCGCCAGACCUACAGAAAUGUAGUUGACUAGGAGGAGGUUUAUUGAAUUUUCGGCGGAUGCCUCCAAA [A15C G35U C50U] | < 1e-05 |  | < 1e-05 | < 1e-05 |  |
| AUAAAACCGCCAGAAGUACAGAAAUGUAGUUGACGAGGAGGAGGUUAAUCGAAUUUUCGGCGGAUGCCUCCAAA [G7C C16G U47A] | < 1e-05 | < 1e-05 | < 1e-05 | < 1e-05 |  |
| AUAAAAGCGCCAGGACUACAGAAAUGUAGUUGACGAGGAGAAGGUUUAUCGAAUUUUCGGCGGAUGUCUCCAAA [A14G G41A C67U] | < 1e-05 |  |  |  |  |
| AUAAAAGCGCUAGAACUACAGAAAUGUAGUUGACGAGGAGGAGGUUUAUCGUAUUUUCGCCGGAUGCCUCCAAA [C11U A52U G60C] | < 1e-05 |  | < 1e-05 |  | < 1e-05 |
| AUAAAAGCGCCAGGACUACAGAAAUGUAGUUGACGAGGUGGAGAUUUAUCGAAUUUUCGGCGGAUGCCUCCAAA [A14G A39U G44A] | 0.000196 ± 4.6e-05 |  | 0.00841 ± 0.0018 |  |  |
| AUAAAAGCGCCAGAACUACAGAAAUGUAGUUGACGAGGAGGAGGUUUAUCGGAUUUUCGACGGAGGCCUCUAAA [A52G G60A U65G C71U] | < 1e-05 |  |  |  |  |
| AUAAAAGCGCCAGAACUACAGAAAUGUAGUUGUCGCGGAGGAGGUUUAUCGAAUUUUGGGCGGAUGCCCCCAAA [A33U A36C C58G U69C] | 4.07e-05 ± 2e-05 | 7.32e-05 ± 1.9e-05 |  |  |  |
| AUAAAACCGCCAGAACUACAGAAAUGUAUUUUACGAGGAGGAGGUUUAUCGAAUUUUCGGCGGCUGCCUCCAAA [G7C G29U G32U A64C] | < 1e-05 |  |  |  |  |
| AUAAAAGCGCCAGAACUACAGAAAUGUAGUUGACGAGGAAGAGGUUUCUCGAAUUUACGGGGGAUGCCUCCAAA [G40A A48C U57A C61G] | < 1e-05 |  |  | < 1e-05 |  |
| AUAAAUGCGCCCGAACUACAGAAAUGUAGUUGACGAGGAGGAGGAUUAUCGCAUUUUCGGCGGAUGCCUCCAAA [A6U A12C U45A A52C] | < 1e-05 |  | < 1e-05 | < 1e-05 |  |
| AUAAAAGCGCCAGAACUACAGAAAUGUAGUUGACCAGGAGGAGGUUUAUUGAAUUUUCGGCGGAUGCCUGCAAA [G35C C50U C70G] | < 1e-05 |  |  |  |  |
| AUAAAAGCGCAAGAACUACAGAAAUGUAGUUGACGCGGAGGAGGUUUAUCGAAUUUUCGGCGGAUGCCUCCAAA [C11A A36C] | < 1e-05 | < 1e-05 | < 1e-05 | < 1e-05 | < 1e-05 |
| AUAAAAGCGCCUGAACUACAGAAAUGUAGUUGACGAGGAGGAGGUUUAUCGAACUUUCGGCGGAUGCCUCCAAA [A12U U54C] | 0.00204 ± 0.00025 | 0.00477 ± 0.00085 | 0.0931 ± 0.024 | 0.0157 ± 0.0029 | 0.0165 ± 0.0024 |
| AUAAAAGCGCCAGAACUACAGAAAUGUAGUUGACGAGGAGGAGGUUUACCGAAUUUUCUGCGGAUGCCUCCAAA [U49C G59U] | < 1e-05 | < 1e-05 | < 1e-05 |  | < 1e-05 |
| AUAAAAGCGCCAGAACUACAGAAAUGUAGUUGACAAGGAGGAGGUUUCUCGAAUUUUCGGCGGAUGCCUCCAAA [G35A A48C] | < 1e-05 | < 1e-05 | < 1e-05 | < 1e-05 | < 1e-05 |
| AUAAAAGCGCCAGAACUACAGAAAUGUAGUUGAGGAGGAGGAGGUUUAUCGAAGUUUCGGCGGAUGCCUCCAAA [C34G U54G] | < 1e-05 | < 1e-05 | < 1e-05 |  | < 1e-05 |
| AUAAAAACGCCAGAACUACAGAAAUGUAGUAGACGAGGAGGAGGUUUAUCGAAUUUUCGGCGGAUGCCUCCAAA [G7A U31A] | < 1e-05 |  |  |  | < 1e-05 |
| AUAAAAGCGCCAGAACUACAGAAAUGUAGUUGACGAGGAGGAGGUUUAUCGAAUUCUCGGAGGAUGCCUCCAAA [U56C C61A] | < 1e-05 | < 1e-05 |  |  | < 1e-05 |
| AUAAAAGCGCCAGAACUACAGAAAUGUAGUUGGCGAGGAGAAGGUUUAUCGAAUUUUCGGCGGAUGCCUCCAAA [A33G G41A] | < 1e-05 | < 1e-05 | < 1e-05 |  |  |
| AUAAAAGCGCCAGAACUACAGAAAUGUAGUUGACGAGGAGGAGGUUAAUCGAAGUUUCGGCGGAUGCCUCCAAA [U47A U54G] | 0.0005 ± 0.00016 |  |  | 0.00345 ± 0.0016 | 0.0103 ± 0.0034 |
| AUAAAAGCGCCAGAACUACAGAAAUGUAGUUAACGAGGAGGAGGUUUUUCGAAUUUUCGGCGGAUGCCUUCAAA [G32A A48U C70U] | < 1e-05 |  |  |  |  |
| AUAAAAUCGCCAGAACUACAGAAAUGUAGUUGAAGAGGAGGAGGUUUAUCGAAUUUUCGGCGGAUGCCUCCAAA [G7U C34A] | < 1e-05 | < 1e-05 | < 1e-05 |  | < 1e-05 |
| AUAAAAGCGCCAGAACUACAGAAAUGUAGUUGACGAGGAGGUGGUUUAUCGAAUUUUCGUCGGAUGCCUCCAAA [A42U G60U] | < 1e-05 | < 1e-05 |  |  | < 1e-05 |
| AUAAAUGCGCCAGAACUACAGAAAUGUAGUUGAAGAGGAGGAGGUUUAUCGAAUUUUCGGCGGAUGCCUCCAAA [A6U C34A] | < 1e-05 | < 1e-05 | < 1e-05 | < 1e-05 | < 1e-05 |

Source: the supplement of paper PMC7125110
